Experimental findings from patent US20210388087A1 (Chugai, published 2021) are described below.

B1: H183/L072 VL N28V (antibody, name in Kabat numbering, V domains shown)
VH: QVQLVESGGGLVQPGRSLRLSCAASGFTFSNAWMHWVRQAPGKGLEWVAQIKDKGNAYAAYYAPSVKGRFTISRDDSKNSIYLQMNSLKTEDTAVYYCHYVHYASASTVLPAFGVDAWGQGTTVTVSS
VL: DIVMTQSPLSLPVTPGEPASISCQASQELVHMVRNTYLHWYQQKPGQAPRLLIYKVSNRFPGVPDRFSGSGSGTDFTLKISRVEAEDVGVYYCAQGTSVPFTFGQGTKLEIK
notes: Dual-Ig
B2: H183/L072 VL N28W (antibody, name in Kabat numbering, V domains shown)
VH: QVQLVESGGGLVQPGRSLRLSCAASGFTFSNAWMHWVRQAPGKGLEWVAQIKDKGNAYAAYYAPSVKGRFTISRDDSKNSIYLQMNSLKTEDTAVYYCHYVHYASASTVLPAFGVDAWGQGTTVTVSS
VL: DIVMTQSPLSLPVTPGEPASISCQASQELVHMWRNTYLHWYQQKPGQAPRLLIYKVSNRFPGVPDRFSGSGSGTDFTLKISRVEAEDVGVYYCAQGTSVPFTFGQGTKLEIK
notes: Dual-Ig
B3: H183/L072 VL N30K (antibody, name in Kabat numbering, V domains shown)
VH: QVQLVESGGGLVQPGRSLRLSCAASGFTFSNAWMHWVRQAPGKGLEWVAQIKDKGNAYAAYYAPSVKGRFTISRDDSKNSIYLQMNSLKTEDTAVYYCHYVHYASASTVLPAFGVDAWGQGTTVTVSS
VL: DIVMTQSPLSLPVTPGEPASISCQASQELVHMNRKTYLHWYQQKPGQAPRLLIYKVSNRFPGVPDRFSGSGSGTDFTLKISRVEAEDVGVYYCAQGTSVPFTFGQGTKLEIK
notes: Dual-Ig
B4: H183/L072 VL N30A (antibody, name in Kabat numbering, V domains shown)
VH: QVQLVESGGGLVQPGRSLRLSCAASGFTFSNAWMHWVRQAPGKGLEWVAQIKDKGNAYAAYYAPSVKGRFTISRDDSKNSIYLQMNSLKTEDTAVYYCHYVHYASASTVLPAFGVDAWGQGTTVTVSS
VL: DIVMTQSPLSLPVTPGEPASISCQASQELVHMNRATYLHWYQQKPGQAPRLLIYKVSNRFPGVPDRFSGSGSGTDFTLKISRVEAEDVGVYYCAQGTSVPFTFGQGTKLEIK
notes: Dual-Ig
B5: H183/L072 VL N30V (antibody, name in Kabat numbering, V domains shown)
VH: QVQLVESGGGLVQPGRSLRLSCAASGFTFSNAWMHWVRQAPGKGLEWVAQIKDKGNAYAAYYAPSVKGRFTISRDDSKNSIYLQMNSLKTEDTAVYYCHYVHYASASTVLPAFGVDAWGQGTTVTVSS
VL: DIVMTQSPLSLPVTPGEPASISCQASQELVHMNRVTYLHWYQQKPGQAPRLLIYKVSNRFPGVPDRFSGSGSGTDFTLKISRVEAEDVGVYYCAQGTSVPFTFGQGTKLEIK
notes: Dual-Ig
B6: H183/L072 VL N30T (antibody, name in Kabat numbering, V domains shown)
VH: QVQLVESGGGLVQPGRSLRLSCAASGFTFSNAWMHWVRQAPGKGLEWVAQIKDKGNAYAAYYAPSVKGRFTISRDDSKNSIYLQMNSLKTEDTAVYYCHYVHYASASTVLPAFGVDAWGQGTTVTVSS
VL: DIVMTQSPLSLPVTPGEPASISCQASQELVHMNRTTYLHWYQQKPGQAPRLLIYKVSNRFPGVPDRFSGSGSGTDFTLKISRVEAEDVGVYYCAQGTSVPFTFGQGTKLEIK
notes: Dual-Ig
B7: H183/L072 VL N30Q (antibody, name in Kabat numbering, V domains shown)
VH: QVQLVESGGGLVQPGRSLRLSCAASGFTFSNAWMHWVRQAPGKGLEWVAQIKDKGNAYAAYYAPSVKGRFTISRDDSKNSIYLQMNSLKTEDTAVYYCHYVHYASASTVLPAFGVDAWGQGTTVTVSS
VL: DIVMTQSPLSLPVTPGEPASISCQASQELVHMNRQTYLHWYQQKPGQAPRLLIYKVSNRFPGVPDRFSGSGSGTDFTLKISRVEAEDVGVYYCAQGTSVPFTFGQGTKLEIK
notes: Dual-Ig
B8: H183/L072 VL N28Y (antibody, name in Kabat numbering, V domains shown)
VH: QVQLVESGGGLVQPGRSLRLSCAASGFTFSNAWMHWVRQAPGKGLEWVAQIKDKGNAYAAYYAPSVKGRFTISRDDSKNSIYLQMNSLKTEDTAVYYCHYVHYASASTVLPAFGVDAWGQGTTVTVSS
VL: DIVMTQSPLSLPVTPGEPASISCQASQELVHMYRNTYLHWYQQKPGQAPRLLIYKVSNRFPGVPDRFSGSGSGTDFTLKISRVEAEDVGVYYCAQGTSVPFTFGQGTKLEIK
notes: Dual-Ig
B9: H183/L072 VL N30H (antibody, name in Kabat numbering, V domains shown)
VH: QVQLVESGGGLVQPGRSLRLSCAASGFTFSNAWMHWVRQAPGKGLEWVAQIKDKGNAYAAYYAPSVKGRFTISRDDSKNSIYLQMNSLKTEDTAVYYCHYVHYASASTVLPAFGVDAWGQGTTVTVSS
VL: DIVMTQSPLSLPVTPGEPASISCQASQELVHMNRHTYLHWYQQKPGQAPRLLIYKVSNRFPGVPDRFSGSGSGTDFTLKISRVEAEDVGVYYCAQGTSVPFTFGQGTKLEIK
notes: Dual-Ig
B10: H183/L072 VL N30M (antibody, name in Kabat numbering, V domains shown)
VH: QVQLVESGGGLVQPGRSLRLSCAASGFTFSNAWMHWVRQAPGKGLEWVAQIKDKGNAYAAYYAPSVKGRFTISRDDSKNSIYLQMNSLKTEDTAVYYCHYVHYASASTVLPAFGVDAWGQGTTVTVSS
VL: DIVMTQSPLSLPVTPGEPASISCQASQELVHMNRMTYLHWYQQKPGQAPRLLIYKVSNRFPGVPDRFSGSGSGTDFTLKISRVEAEDVGVYYCAQGTSVPFTFGQGTKLEIK
notes: Dual-Ig
B11: H183/L072 VL N30S (antibody, name in Kabat numbering, V domains shown)
VH: QVQLVESGGGLVQPGRSLRLSCAASGFTFSNAWMHWVRQAPGKGLEWVAQIKDKGNAYAAYYAPSVKGRFTISRDDSKNSIYLQMNSLKTEDTAVYYCHYVHYASASTVLPAFGVDAWGQGTTVTVSS
VL: DIVMTQSPLSLPVTPGEPASISCQASQELVHMNRSTYLHWYQQKPGQAPRLLIYKVSNRFPGVPDRFSGSGSGTDFTLKISRVEAEDVGVYYCAQGTSVPFTFGQGTKLEIK
notes: Dual-Ig
B12: H183/L072 VL N30G (antibody, name in Kabat numbering, V domains shown)
VH: QVQLVESGGGLVQPGRSLRLSCAASGFTFSNAWMHWVRQAPGKGLEWVAQIKDKGNAYAAYYAPSVKGRFTISRDDSKNSIYLQMNSLKTEDTAVYYCHYVHYASASTVLPAFGVDAWGQGTTVTVSS
VL: DIVMTQSPLSLPVTPGEPASISCQASQELVHMNRGTYLHWYQQKPGQAPRLLIYKVSNRFPGVPDRFSGSGSGTDFTLKISRVEAEDVGVYYCAQGTSVPFTFGQGTKLEIK
notes: Dual-Ig
B13: H183/L072 VL N30P (antibody, name in Kabat numbering, V domains shown)
VH: QVQLVESGGGLVQPGRSLRLSCAASGFTFSNAWMHWVRQAPGKGLEWVAQIKDKGNAYAAYYAPSVKGRFTISRDDSKNSIYLQMNSLKTEDTAVYYCHYVHYASASTVLPAFGVDAWGQGTTVTVSS
VL: DIVMTQSPLSLPVTPGEPASISCQASQELVHMNRPTYLHWYQQKPGQAPRLLIYKVSNRFPGVPDRFSGSGSGTDFTLKISRVEAEDVGVYYCAQGTSVPFTFGQGTKLEIK
notes: Dual-Ig
B14: H183/L072 VL N30D (antibody, name in Kabat numbering, V domains shown)
VH: QVQLVESGGGLVQPGRSLRLSCAASGFTFSNAWMHWVRQAPGKGLEWVAQIKDKGNAYAAYYAPSVKGRFTISRDDSKNSIYLQMNSLKTEDTAVYYCHYVHYASASTVLPAFGVDAWGQGTTVTVSS
VL: DIVMTQSPLSLPVTPGEPASISCQASQELVHMNRDTYLHWYQQKPGQAPRLLIYKVSNRFPGVPDRFSGSGSGTDFTLKISRVEAEDVGVYYCAQGTSVPFTFGQGTKLEIK
notes: Dual-Ig
B15: H183/L072 VL N30W (antibody, name in Kabat numbering, V domains shown)
VH: QVQLVESGGGLVQPGRSLRLSCAASGFTFSNAWMHWVRQAPGKGLEWVAQIKDKGNAYAAYYAPSVKGRFTISRDDSKNSIYLQMNSLKTEDTAVYYCHYVHYASASTVLPAFGVDAWGQGTTVTVSS
VL: DIVMTQSPLSLPVTPGEPASISCQASQELVHMNRWTYLHWYQQKPGQAPRLLIYKVSNRFPGVPDRFSGSGSGTDFTLKISRVEAEDVGVYYCAQGTSVPFTFGQGTKLEIK
notes: Dual-Ig
B16: H183/L072 VL N30I (antibody, name in Kabat numbering, V domains shown)
VH: QVQLVESGGGLVQPGRSLRLSCAASGFTFSNAWMHWVRQAPGKGLEWVAQIKDKGNAYAAYYAPSVKGRFTISRDDSKNSIYLQMNSLKTEDTAVYYCHYVHYASASTVLPAFGVDAWGQGTTVTVSS
VL: DIVMTQSPLSLPVTPGEPASISCQASQELVHMNRITYLHWYQQKPGQAPRLLIYKVSNRFPGVPDRFSGSGSGTDFTLKISRVEAEDVGVYYCAQGTSVPFTFGQGTKLEIK
notes: Dual-Ig
B17: H183/L072 VL N30E (antibody, name in Kabat numbering, V domains shown)
VH: QVQLVESGGGLVQPGRSLRLSCAASGFTFSNAWMHWVRQAPGKGLEWVAQIKDKGNAYAAYYAPSVKGRFTISRDDSKNSIYLQMNSLKTEDTAVYYCHYVHYASASTVLPAFGVDAWGQGTTVTVSS
VL: DIVMTQSPLSLPVTPGEPASISCQASQELVHMNRETYLHWYQQKPGQAPRLLIYKVSNRFPGVPDRFSGSGSGTDFTLKISRVEAEDVGVYYCAQGTSVPFTFGQGTKLEIK
notes: Dual-Ig
B18: H183/L072 VL N30F (antibody, name in Kabat numbering, V domains shown)
VH: QVQLVESGGGLVQPGRSLRLSCAASGFTFSNAWMHWVRQAPGKGLEWVAQIKDKGNAYAAYYAPSVKGRFTISRDDSKNSIYLQMNSLKTEDTAVYYCHYVHYASASTVLPAFGVDAWGQGTTVTVSS
VL: DIVMTQSPLSLPVTPGEPASISCQASQELVHMNRFTYLHWYQQKPGQAPRLLIYKVSNRFPGVPDRFSGSGSGTDFTLKISRVEAEDVGVYYCAQGTSVPFTFGQGTKLEIK
notes: Dual-Ig
B19: H183/L072 VL N30R (antibody, name in Kabat numbering, V domains shown)
VH: QVQLVESGGGLVQPGRSLRLSCAASGFTFSNAWMHWVRQAPGKGLEWVAQIKDKGNAYAAYYAPSVKGRFTISRDDSKNSIYLQMNSLKTEDTAVYYCHYVHYASASTVLPAFGVDAWGQGTTVTVSS
VL: DIVMTQSPLSLPVTPGEPASISCQASQELVHMNRRTYLHWYQQKPGQAPRLLIYKVSNRFPGVPDRFSGSGSGTDFTLKISRVEAEDVGVYYCAQGTSVPFTFGQGTKLEIK
notes: Dual-Ig
B20: H183/L072 VL N30L (antibody, name in Kabat numbering, V domains shown)
VH: QVQLVESGGGLVQPGRSLRLSCAASGFTFSNAWMHWVRQAPGKGLEWVAQIKDKGNAYAAYYAPSVKGRFTISRDDSKNSIYLQMNSLKTEDTAVYYCHYVHYASASTVLPAFGVDAWGQGTTVTVSS
VL: DIVMTQSPLSLPVTPGEPASISCQASQELVHMNRLTYLHWYQQKPGQAPRLLIYKVSNRFPGVPDRFSGSGSGTDFTLKISRVEAEDVGVYYCAQGTSVPFTFGQGTKLEIK
notes: Dual-Ig

T1 sequence (chain, as listed by the source limits assumed): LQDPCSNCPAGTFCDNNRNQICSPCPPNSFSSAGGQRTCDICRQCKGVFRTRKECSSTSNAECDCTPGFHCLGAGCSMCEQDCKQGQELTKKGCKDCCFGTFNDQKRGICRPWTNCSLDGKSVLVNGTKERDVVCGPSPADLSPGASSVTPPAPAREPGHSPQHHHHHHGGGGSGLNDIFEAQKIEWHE

The assay concerns the target T1, Human CD137 ECD (human).
T1 construct: entry includes C-terminal His-tag and biotin acceptor peptide; also called human CD137 extracellular domain; 4-1BB
As to the kind of experiment: Biacore SPR, vs parent H183/L072.
With B1, the “fold change of affinity” value was found to be 0.3 fold.
Consider B2, for which the “fold change of affinity” value amounted to 0.3 fold.
For B3, the “fold change of affinity” value was 0.6 fold.
The value for B4 was 0.7 fold; that for B5 was 0.7 fold; that for B6 was 0.3 fold.
The value for B7 was 1 fold.
The same measure for B8: 0.4 fold; for B9: 1 fold; for B10: 1.8 fold.
As for B11, the “fold change of affinity” value came to 0.2 fold.
The same measure for B12: 0.9 fold.
The value for B13 was 0.4 fold.
Take B14: the “fold change of affinity” value was 0.1 fold.
The value for B15 was 0.9 fold.
The same measure for B16: 0.3 fold.
Take B17: the “fold change of affinity” value was determined as 0.1 fold.
Regarding B18, the “fold change of affinity” value is 0.9 fold.
The same measure for B19: 0.5 fold.
In the case of B20, the “fold change of affinity” value stood at 0.3 fold.
